{"source": "paper PMC7004846", "biological_target": "Aquifex aeolicus VF5 Wzt carbohydrate-binding domain (residues 235-395), long construct (Aquifex aeolicus VF5)", "experiment": "SEC"}
{"substance": "Aquifex aeolicus VF5 Wzt carbohydrate-binding domain (residues 235-395), long construct (domain or fragment)", "values": [{"measurement": "stoichiometry N", "value": 2}]}
